Columns and labels:
[1] = target: N-terminus Huntingtin exon 1 fragment harboring pathological (109Q) polyglutamine repeats, fused with eCFP or eYFP; assay: FRET or BRET; frequency-domain FLIM-FRET (phasor trajectory) in living Neuro2a cells co-expressing 109QHtt-eCFP and 109QHtt-eYFP; soluble fraction; cells treated with 8R10Q
[2] = target: N-terminus Huntingtin exon 1 fragment harboring pathological (109Q) polyglutamine repeats, fused with eCFP or eYFP; assay: FRET or BRET; frequency-domain FLIM-FRET (phasor trajectory) in living Neuro2a cells co-expressing 109QHtt-eCFP and 109QHtt-eYFP; aggregated fraction; cells treated with 8R10Q
[3] = target: N-terminus Huntingtin exon 1 fragment harboring pathological (109Q) polyglutamine repeats, fused with eCFP or eYFP; assay: FRET or BRET; frequency-domain FLIM-FRET (phasor trajectory) in living Neuro2a cells co-expressing eCFP (donor) and eYFP (acceptor) fusions; soluble fraction; no peptide
[4] = target: N-terminus Huntingtin exon 1 fragment harboring pathological (109Q) polyglutamine repeats, fused with eCFP or eYFP; assay: FRET or BRET; frequency-domain FLIM-FRET (phasor trajectory) in living Neuro2a cells co-expressing 109QHtt-eCFP and 109QHtt-eYFP; aggregated fraction; no peptide

Sequence of N-terminus Huntingtin exon 1 fragment harboring pathological (109Q) polyglutamine repeats, fused with eCFP or eYFP (P42858 whole entry, change not shown, the tested form may be a part): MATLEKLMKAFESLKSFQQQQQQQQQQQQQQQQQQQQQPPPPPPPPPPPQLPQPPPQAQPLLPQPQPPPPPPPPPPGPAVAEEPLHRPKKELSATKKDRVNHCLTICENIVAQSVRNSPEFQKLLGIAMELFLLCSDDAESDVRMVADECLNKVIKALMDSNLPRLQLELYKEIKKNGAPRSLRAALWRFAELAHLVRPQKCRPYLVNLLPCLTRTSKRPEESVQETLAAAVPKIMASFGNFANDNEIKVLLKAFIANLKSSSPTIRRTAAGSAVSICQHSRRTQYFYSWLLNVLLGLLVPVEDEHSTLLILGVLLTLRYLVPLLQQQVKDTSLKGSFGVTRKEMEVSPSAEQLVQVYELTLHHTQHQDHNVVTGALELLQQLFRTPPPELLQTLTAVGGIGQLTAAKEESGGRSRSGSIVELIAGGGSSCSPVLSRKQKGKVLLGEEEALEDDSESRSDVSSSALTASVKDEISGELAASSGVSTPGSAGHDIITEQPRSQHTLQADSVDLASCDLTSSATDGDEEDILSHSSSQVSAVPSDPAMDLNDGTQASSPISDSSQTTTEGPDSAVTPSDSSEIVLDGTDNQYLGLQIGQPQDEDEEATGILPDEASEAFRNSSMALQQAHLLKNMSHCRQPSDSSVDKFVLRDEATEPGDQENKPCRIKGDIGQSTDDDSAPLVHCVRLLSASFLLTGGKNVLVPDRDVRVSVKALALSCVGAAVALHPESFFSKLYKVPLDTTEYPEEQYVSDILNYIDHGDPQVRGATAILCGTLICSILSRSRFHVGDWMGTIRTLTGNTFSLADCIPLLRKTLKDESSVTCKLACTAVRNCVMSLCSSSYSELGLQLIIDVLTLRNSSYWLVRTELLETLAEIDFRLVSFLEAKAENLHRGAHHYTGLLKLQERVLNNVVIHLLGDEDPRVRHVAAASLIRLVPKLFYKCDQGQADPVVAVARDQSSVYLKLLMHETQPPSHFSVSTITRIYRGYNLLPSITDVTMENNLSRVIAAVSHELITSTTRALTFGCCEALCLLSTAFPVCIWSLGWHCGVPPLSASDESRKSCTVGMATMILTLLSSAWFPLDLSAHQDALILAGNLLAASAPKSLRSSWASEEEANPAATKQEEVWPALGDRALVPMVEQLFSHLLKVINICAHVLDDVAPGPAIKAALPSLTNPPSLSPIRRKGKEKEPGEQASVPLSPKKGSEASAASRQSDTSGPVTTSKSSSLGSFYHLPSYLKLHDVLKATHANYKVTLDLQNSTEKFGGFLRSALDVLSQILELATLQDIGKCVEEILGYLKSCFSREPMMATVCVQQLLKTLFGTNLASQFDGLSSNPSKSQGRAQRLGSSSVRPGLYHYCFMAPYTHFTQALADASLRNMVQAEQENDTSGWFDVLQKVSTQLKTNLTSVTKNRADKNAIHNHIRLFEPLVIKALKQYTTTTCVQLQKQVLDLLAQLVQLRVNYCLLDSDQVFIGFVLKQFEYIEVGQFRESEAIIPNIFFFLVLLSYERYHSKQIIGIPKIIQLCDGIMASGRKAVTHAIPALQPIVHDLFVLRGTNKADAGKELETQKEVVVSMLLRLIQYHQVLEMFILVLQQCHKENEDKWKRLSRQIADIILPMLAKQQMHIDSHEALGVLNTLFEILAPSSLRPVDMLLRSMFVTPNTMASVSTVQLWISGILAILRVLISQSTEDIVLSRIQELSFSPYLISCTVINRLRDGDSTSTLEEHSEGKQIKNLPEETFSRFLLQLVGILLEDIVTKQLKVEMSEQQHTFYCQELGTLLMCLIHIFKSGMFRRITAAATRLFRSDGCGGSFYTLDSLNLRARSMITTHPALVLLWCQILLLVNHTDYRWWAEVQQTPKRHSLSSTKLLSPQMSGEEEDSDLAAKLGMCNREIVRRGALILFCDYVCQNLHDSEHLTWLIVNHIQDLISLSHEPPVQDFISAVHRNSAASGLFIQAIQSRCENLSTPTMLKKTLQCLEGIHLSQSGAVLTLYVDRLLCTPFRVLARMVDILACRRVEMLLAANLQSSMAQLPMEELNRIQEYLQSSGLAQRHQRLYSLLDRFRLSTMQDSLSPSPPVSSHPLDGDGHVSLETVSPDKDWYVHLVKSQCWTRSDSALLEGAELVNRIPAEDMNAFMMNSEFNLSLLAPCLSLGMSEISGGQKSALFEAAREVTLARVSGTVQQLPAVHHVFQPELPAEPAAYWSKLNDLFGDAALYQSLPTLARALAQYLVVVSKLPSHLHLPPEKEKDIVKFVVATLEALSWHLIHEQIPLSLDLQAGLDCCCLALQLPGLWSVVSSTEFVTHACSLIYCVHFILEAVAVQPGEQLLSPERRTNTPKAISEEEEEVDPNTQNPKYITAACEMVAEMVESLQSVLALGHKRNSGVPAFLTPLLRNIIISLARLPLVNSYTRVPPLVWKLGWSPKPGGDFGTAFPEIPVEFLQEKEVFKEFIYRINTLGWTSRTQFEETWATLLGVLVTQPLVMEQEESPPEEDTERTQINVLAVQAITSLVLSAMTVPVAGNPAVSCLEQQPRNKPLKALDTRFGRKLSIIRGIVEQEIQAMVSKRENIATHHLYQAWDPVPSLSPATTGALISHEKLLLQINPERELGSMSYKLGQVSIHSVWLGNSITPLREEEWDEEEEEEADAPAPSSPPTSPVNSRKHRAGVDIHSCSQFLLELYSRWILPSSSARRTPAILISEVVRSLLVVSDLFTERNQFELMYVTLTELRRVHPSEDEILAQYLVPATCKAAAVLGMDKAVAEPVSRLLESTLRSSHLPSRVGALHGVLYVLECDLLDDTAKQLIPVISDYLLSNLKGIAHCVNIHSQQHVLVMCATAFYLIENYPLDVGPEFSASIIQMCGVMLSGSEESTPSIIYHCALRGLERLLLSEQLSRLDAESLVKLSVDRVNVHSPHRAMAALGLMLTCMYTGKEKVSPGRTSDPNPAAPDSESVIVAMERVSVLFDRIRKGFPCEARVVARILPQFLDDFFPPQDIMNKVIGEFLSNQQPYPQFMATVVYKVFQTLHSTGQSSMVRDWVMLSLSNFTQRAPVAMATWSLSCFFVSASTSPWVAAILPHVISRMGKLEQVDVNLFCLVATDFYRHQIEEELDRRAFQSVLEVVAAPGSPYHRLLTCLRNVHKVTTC

FRET efficiency with 8R10Q [1]: 4.5%
FRET efficiency with 8R10Q [2]: 16.4%
FRET efficiency [3]: 8.7%
FRET efficiency [4]: 41.8%
Substance: N-terminus Huntingtin exon 1 fragment harboring pathological (109Q) polyglutamine repeats, fused with eCFP or eYFP (domain or fragment)

Reference: PMC6974936
